No end group written: not given here. *: point of attachment. FITC = O=C1OC2(c3ccc(O)cc3Oc3cc(O)ccc32)c2ccc(NC(=S)*)cc21
B1: Pcs60 peptide (FITC-YKSSRNKSKL) (peptide)
peptide: {FITC}-YKSSRNKSKL
B2: mCherry-SKL peptide (FITC-GMDELYKSKL) (peptide)
peptide: {FITC}-GMDELYKSKL
B3: Lys1 peptide (FITC-YARVKRSSRL) (peptide)
peptide: {FITC}-YARVKRSSRL
B4: Cat2 peptide (FITC-YNENKRKAKL) (peptide)
peptide: {FITC}-YNENKRKAKL

target: T1, Full-length S. cerevisiae Pex5 (S. cerevisiae, UniProt P35056 1-612); assay: fluorescence polarisation
T1 sequence: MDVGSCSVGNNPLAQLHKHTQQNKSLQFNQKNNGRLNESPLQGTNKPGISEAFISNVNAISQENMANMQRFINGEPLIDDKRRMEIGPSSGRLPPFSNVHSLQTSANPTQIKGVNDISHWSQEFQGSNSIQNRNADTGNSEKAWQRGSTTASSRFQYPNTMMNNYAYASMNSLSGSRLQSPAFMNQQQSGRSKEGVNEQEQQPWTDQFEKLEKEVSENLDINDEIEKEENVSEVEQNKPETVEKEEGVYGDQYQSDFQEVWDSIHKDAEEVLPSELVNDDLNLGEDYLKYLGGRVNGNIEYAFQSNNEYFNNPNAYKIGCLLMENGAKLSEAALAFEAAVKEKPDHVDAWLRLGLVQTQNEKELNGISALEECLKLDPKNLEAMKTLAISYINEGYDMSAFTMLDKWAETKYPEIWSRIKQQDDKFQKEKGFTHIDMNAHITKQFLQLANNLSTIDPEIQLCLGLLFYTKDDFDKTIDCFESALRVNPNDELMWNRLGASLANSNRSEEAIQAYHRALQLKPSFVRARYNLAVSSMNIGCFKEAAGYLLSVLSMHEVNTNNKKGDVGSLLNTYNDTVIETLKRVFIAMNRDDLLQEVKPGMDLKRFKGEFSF

**Q.** How did the Kd turn out when B1 was run?
**A.** 455 ± 43.8 nM

**Q.** For B2, which Kd is on record?
**A.** 9840 nM

**Q.** With B3 as the binder, how does the Kd read?
**A.** 29.3 ± 3.65 nM

**Q.** For B4, which Kd is on record?
**A.** 49.9 ± 4.1 nM

Reference: paper PMC7474679 (Proceedings of the National Academy of Sciences of the …, 2020)
